In publication PMC3249508 (Journal of Molecular Biology, 2011):
Read-outs that look alike come from different tables or passages of the source.

T1: DDX1 (1–428) (human, UniProt Q92499 1-428)
T1 sequence: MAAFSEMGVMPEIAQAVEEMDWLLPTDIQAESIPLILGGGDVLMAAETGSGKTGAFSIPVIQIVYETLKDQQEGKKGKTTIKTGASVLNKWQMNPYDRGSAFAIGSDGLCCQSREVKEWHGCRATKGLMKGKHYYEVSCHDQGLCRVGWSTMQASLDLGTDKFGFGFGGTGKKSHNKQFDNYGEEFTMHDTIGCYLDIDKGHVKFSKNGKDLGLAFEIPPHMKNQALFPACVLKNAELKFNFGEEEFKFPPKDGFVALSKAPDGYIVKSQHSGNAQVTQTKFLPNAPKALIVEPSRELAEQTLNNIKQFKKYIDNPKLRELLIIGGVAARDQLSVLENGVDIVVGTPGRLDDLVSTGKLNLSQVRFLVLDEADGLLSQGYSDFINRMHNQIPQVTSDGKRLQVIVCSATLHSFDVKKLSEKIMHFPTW

B1: recombinant full-length human DDX1 (enzyme)
chain: MAAFSEMGVMPEIAQAVEEMDWLLPTDIQAESIPLILGGGDVLMAAETGSGKTGAFSIPVIQIVYETLKDQQEGKKGKTTIKTGASVLNKWQMNPYDRGSAFAIGSDGLCCQSREVKEWHGCRATKGLMKGKHYYEVSCHDQGLCRVGWSTMQASLDLGTDKFGFGFGGTGKKSHNKQFDNYGEEFTMHDTIGCYLDIDKGHVKFSKNGKDLGLAFEIPPHMKNQALFPACVLKNAELKFNFGEEEFKFPPKDGFVALSKAPDGYIVKSQHSGNAQVTQTKFLPNAPKALIVEPSRELAEQTLNNIKQFKKYIDNPKLRELLIIGGVAARDQLSVLENGVDIVVGTPGRLDDLVSTGKLNLSQVRFLVLDEADGLLSQGYSDFINRMHNQIPQVTSDGKRLQVIVCSATLHSFDVKKLSEKIMHFPTWVDLKGEDSVPDTVHHVVVPVNPKTDRLWERLGKSHIRTDDVHAKDNTRPGANSPEMWSEAIKILKGEYAVRAIKEHKMDQAIIFCRTKIDCDNLEQYFIQQGGGPDKKGHQFSCVCLHGDRKPHERKQNLERFKKGDVRFLICTDVAARGIDIHGVPYVINVTLPDEKQNYVHRIGRVGRAERMGLAISLVATEKEKVWYHVCSSRGKGCYNTRLKEDGGCTIWYNEMQLLSEIEEHLNCTISQVEPDIKVPVDEFDGKVTYGQKRAAGGGSYKGHVDILAPTVQELAALEKEAQTSFLHLGYLPNQLFRTF
B2: Alexa-488-labeled HIV-1 Rev protein (natural protein)
chain: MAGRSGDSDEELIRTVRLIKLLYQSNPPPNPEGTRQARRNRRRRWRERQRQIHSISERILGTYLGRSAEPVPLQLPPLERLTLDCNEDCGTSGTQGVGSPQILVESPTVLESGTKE
modifications: Alexa-488 label (site not stated)

How the values were obtained:
[1] = target: the molecule itself; test: SEC
[2] = target: bovine serum albumin (bovine, UniProt P02769 25-607); test: fluorescence polarisation
Sequence of bovine serum albumin (P02769 25-607): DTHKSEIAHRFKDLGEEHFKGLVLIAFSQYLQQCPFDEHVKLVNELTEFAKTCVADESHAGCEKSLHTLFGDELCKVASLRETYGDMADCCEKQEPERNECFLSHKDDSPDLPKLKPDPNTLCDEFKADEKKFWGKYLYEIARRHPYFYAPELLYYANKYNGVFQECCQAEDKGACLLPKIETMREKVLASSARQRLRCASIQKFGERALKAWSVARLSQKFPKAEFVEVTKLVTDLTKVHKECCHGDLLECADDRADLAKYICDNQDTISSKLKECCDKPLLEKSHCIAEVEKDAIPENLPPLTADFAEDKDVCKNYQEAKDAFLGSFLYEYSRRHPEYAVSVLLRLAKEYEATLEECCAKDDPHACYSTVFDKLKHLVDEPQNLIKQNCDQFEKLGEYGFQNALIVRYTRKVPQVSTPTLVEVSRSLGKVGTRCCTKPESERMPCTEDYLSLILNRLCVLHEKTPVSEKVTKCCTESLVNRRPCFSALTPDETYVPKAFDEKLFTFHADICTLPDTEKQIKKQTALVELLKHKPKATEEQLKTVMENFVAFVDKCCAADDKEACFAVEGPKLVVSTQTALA

[3] = target: B1; test: fluorescence polarisation
[4] = target: T1, DDX1 (1–428); test: fluorescence polarisation
[5] = target: B1; test: fluorescence polarisation; remark: listed apart in the source
[6] = target: B1; test: fluorescence polarisation; remark: listed apart in the source

| Binder | binding result [1] | Kd [2] [nM] | Kd [3] [nM] | Kd [4] [nM] | Kd [5] [nM] | Kd [6] [nM] |
| --- | --- | --- | --- | --- | --- | --- |
| B1 | binds | – | – | – | – | – |
| B2 | – | > 500 | 36 | 43 | 53 | 14.7 |
